Reference: patent publication US20230416394A1 (ELPISCIENCE SUZHOU BIOPHARMA, published 2023)

T1: KW27-6 (human, UniProt P49961 1-510)
T1 construct: on transfected HEK-293F cells; also called human CD39 mutant KW27-6; not shown: C-terminal EGFP (vector pCMV3-GFPSpark) and any linker to it
T1 sequence: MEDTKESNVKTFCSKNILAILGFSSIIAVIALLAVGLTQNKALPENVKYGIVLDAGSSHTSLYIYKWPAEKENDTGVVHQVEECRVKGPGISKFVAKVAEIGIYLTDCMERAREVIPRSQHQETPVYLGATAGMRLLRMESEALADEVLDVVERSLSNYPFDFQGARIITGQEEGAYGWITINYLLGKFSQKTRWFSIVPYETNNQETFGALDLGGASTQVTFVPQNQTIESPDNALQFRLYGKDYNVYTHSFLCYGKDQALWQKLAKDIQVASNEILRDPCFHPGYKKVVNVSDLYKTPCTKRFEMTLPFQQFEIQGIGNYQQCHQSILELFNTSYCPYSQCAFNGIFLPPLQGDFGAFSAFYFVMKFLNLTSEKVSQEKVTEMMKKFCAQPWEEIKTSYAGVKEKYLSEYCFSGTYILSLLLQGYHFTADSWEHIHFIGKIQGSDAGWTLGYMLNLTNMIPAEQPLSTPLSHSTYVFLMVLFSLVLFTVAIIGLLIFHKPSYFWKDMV

T2: mouse CD39 (mouse, UniProt P55772 1-510)
T2 construct: whole, on cells; also called mCD39; CHOK1-mCD39
T2 sequence (looked up): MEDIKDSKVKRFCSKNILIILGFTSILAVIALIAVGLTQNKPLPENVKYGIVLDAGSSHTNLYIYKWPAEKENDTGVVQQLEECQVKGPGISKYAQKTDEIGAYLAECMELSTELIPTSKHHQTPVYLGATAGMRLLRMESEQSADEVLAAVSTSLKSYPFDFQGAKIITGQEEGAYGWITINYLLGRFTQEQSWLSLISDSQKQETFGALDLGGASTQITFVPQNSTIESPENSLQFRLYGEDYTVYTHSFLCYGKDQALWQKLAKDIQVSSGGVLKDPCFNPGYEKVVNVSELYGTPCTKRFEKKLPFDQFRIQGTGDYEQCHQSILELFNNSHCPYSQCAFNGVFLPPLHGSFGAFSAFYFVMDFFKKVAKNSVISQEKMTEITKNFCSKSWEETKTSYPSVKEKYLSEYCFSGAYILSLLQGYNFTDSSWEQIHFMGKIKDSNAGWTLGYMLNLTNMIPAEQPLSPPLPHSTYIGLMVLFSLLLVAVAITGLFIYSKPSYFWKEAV


Assays:
[1] = biological target: T3, human TGFβ1 (human, UniProt P01137 279-390); assay: ELISA, blocking of TGFβRII-His binding to coated TGFβ1
T3 construct: also called TGFβ peptide (TGFβ1); biotinylated TGFβ1
Protocol: For blocking assay, TGFβ peptide (TGFβ1) was coated on microplates. A serial dilution of purified antibodies was incubated with recombinant TGFβRII-His protein (SinoBiological) for 1 h in TGFβ1-coated plates. After wash, the remaining TGFβRII-His was detected by anti-His-HRP conjugated secondary antibody. The values of absorbance at 450 nm were read on a microtiter plate reader (Molecular Devices Corp) for the quantification of TGFβRII-His binding to TGFβ1. All the tested anti-CD39/TGFβ Trap molecules (i.e. ES014-1, ES014-2, ES014-3, ES014-6) could effectively block human TGFβ1 binding to the TGFβ receptor TGFβRII (FIG. 26, Soluble TGFβ trap (i.e. TGFβRII) was used as control). IC 50 values of the anti-CD39/TGFβ Trap molecules were analyzed using GraphPad Prism.

[2] = biological target: T3, human TGFβ1; assay: ELISA, coated human TGFβ1
Protocol: To determine the binding ability and specificity of the anti-CD39/TGFβ Trap molecules, ELISA assays were conducted using human TGFβ1, human TGFβ2, human TGFβ3 as well as mouse TGFβ1. The tested antigens were coated on NUNC 96-well immunoplate at the concentration of 1 μg/ml. Binding with increasing concentrations of anti-CD39/TGFβ Trap molecules was measured with anti-human Fc antibody horseradish peroxidase conjugate diluted in PBT buffer, then developed with TMB substrate. Soluble TGFβ trap was used as control. As shown in FIGS. 25A-25C, the anti-CD39/TGFβ Trap molecules ES014-1 and ES014-2 bind to all three TGFβ homologues: human TGFβ1, TGFβ2 and TGFβ3. The binding assay results of the other tested anti-CD39/TGFβ Trap molecules (including ES014-3, ES014-4, ES014-5, ES014-6, ES014-7) were similar and not shown herein. Moreover, the anti-CD39/TGFβ Trap molecule ES014-1 binds to mouse TGFβ1 with similar affinity as for human TGFβ1 (FIG. 25D).

[3] = biological target: T1, KW27-6; assay: FACS, HEK293F cells expressing mutant-EGFP
Protocol: Briefly, the human CD39 mutants were generated by gene synthesis and then cloned into an expression vector pCMV3-GFPSpark. The vectors containing the validated mutated sequences were prepared and transfected into HEK293F cells. Three days post transfection, the cells were collected to testing EGFP for transgene expression. A range of dosages of antibodies (start from 100 nM, 3-folds dilution, 11 points) were tested on the 20 generated mutants and stained by AlexFluor647 labelled anti-hIgG by FACS. Antibody binding was descripted as relative binding which is derived from AlexFluor647 intensity divided by GFP intensity.

[4] = biological target: T2, mouse CD39; assay: FACS, CHOK1-mCD39 cells
Description: FACS were used to determine binding of the antibodies to cell lines expressing CD39 naturally (SK-MEL-28) or recombinantly (CHOK1-hCD39, CHOK1-cynoCD39, and CHOK1-mCD39), or with cells lacking CD39 expression (CHOK1-blank) as a negative control.
CHOK1-hCD39, CHOK1-cCD39, CHOK1-mCD39 and CHOK1-blank cells were maintained in culture medium according to ATCC procedure. Cells were collected and re-suspended in blocking buffer at a density of 3×10⁶ cells/ml. […] The plates were washed with FACS buffer, and cells were re-suspended in 100 μL/well of PBS. Cells were then analyzed with FACSVerse™ and mean fluorescence intensity were determined. Full binding curves were generated on the CD39 expressing cells by testing a range of antibody concentrations. Apparent affinity was determined for each antibody using Prism software.

T3 sequence (P01137 279-390 limits assumed): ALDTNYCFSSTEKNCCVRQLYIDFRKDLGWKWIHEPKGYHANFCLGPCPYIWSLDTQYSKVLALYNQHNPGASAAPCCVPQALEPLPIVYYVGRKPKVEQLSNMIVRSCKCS

IC50 [1] [nM]	EC50 [2] [nM]	binding result [3]	binding result [4]	Binder
0.58	0.017	–	–	Soluble TGFβ trap (i.e. TGFβRII) (receptor, UniProt P37173 24-159, looked up, construct not described; also called TGFβ trap control) IPPHVQKSVNNDMIVTDNNGAVKFPQLCKFCDVRFSTCDNQKSCMSNCSITSICEKPQEVCVAVWRKNDENITLETVCHDPKLPYHDFILEDAASPKCIMKEKKKPGETFFMCSCSSDECNDNIIFSEEYNTSNPD
–	–	no binding (tested: 100 nM)	no binding (tested: 30 µg/ml)	9-8B (antibody, V domains shown, also called Antibody 9-8B) VH: QIQLVQSGPELKKPGETVKISCKASGYTFTHYGMNWVKQAPGKGLKWMGWINTYTGELTYADDFKGRFAFSLETSASTAYLQINNLKNEDTATYFCARRAYYRYDYVMDYWGQGTSVTVSS VL: DIVMTQSQKFMSTSVGDRVSVTCKASHNVGTNVAWYQQKPGQSPKALIYSASYRYSGVPGRFTGSGSGTDFTLTISNVQSEDLAEYFCHQYNNYPYTFGGGTKLEIK
